{"source": "paper PMC11524583", "about": "“Neurons enhance blood–brain barrier function via upregulating claudin-5 and VE-cadherin expression due to glial cell line-derived neurotrophic factor secretion” (eLife, 2024)", "molecules": {"B1": {"name": "GDNF: glial cell line-derived neurotrophic factor, recombinant protein (R&D system) (protein, UniProt P39905 78-211, looked up)", "Glial cell line-derived …": "SPDKQMAVLPRRERNRQAAAANPENSRGKGRRGQRGKNRGCVLTAIHLNVTDLGLGYETKEELIFRYCSGSCDAAETTYDKILKNLSRNRRLVSDKVGQACCRPIAFDDDLSFLDDNLVYHILRKHSAKRCGCI"}}, "key": {"VE-cadherin [1]": {"test_system": "VE-cadherin", "assay": "Western blot of VE-cadherin expression in hCMEC/D3 cells", "type": "cell-based, Homo sapiens", "conditions": "for VE-cadherin/β-actin Relative Expression, Mean / VE-cadherin/Tubulin Relative Expression Mean / VE-cadherin/β-actin Relative Expression / VE-cadherin/Tubulin Relative Expression: relative to Con (mean 1.000); for VE-cadherin/β-actin Relative Expression, Mean / VE-cadherin/Tubulin Relative Expression Mean: mean of 4; for VE-cadherin/β-actin Relative Expression / VE-cadherin/Tubulin Relative Expression: single replicates", "how_it_was_run": "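hCMEC/D3 cells were cultured 6 days in 200 pg/ml GDNF or U251/SH-SY5Y co-culture conditioned medium, ±0.25–1.0 μg/ml anti-GDNF antibody, with medium changed every 24 hr. Alternatively, cells got 10 nM FOXO1, ETS1 or CDH5 siRNA for 12 hr, then GDNF medium for 72 hr. RIPA lysates were immunoblotted with ECL detection.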"}, "p-JNK/JNK": {"test_system": "p-JNK/JNK", "assay": "Western blot of p-JNK/JNK in hCMEC/D3 cells", "type": "cell-based, Homo sapiens", "experimental": "(§1) Whole-cell and tissue lysates, nucleoprotein, and cytoplasmic protein were prepared using RIPA Lysis Buffer (Beyotime, Shanghai, China) as the described method ([Wu et al., 2021]). Proteins were separated through sodium dodecyl sulfate–polyacrylamide gel electrophoresis and transferred onto nitrocellulose or polyvinylidene difluoride membranes. The membranes were blocked with 5% skim milk and incubated with corresponding primary antibodies at 4°C overnight. After being washed with Tris-buffered saline Tween buffer, the membranes were incubated with secondary antibodies (Cell Signaling Technology, MA, USA) at 1:3000 dilution: Anti-mouse IgG, HRP-linked Antibody (#7076), Anti-rabbit IgG, HRP-linked Antibody (#7074). Protein levels were visualized using a highly sensitive ECL western blotting substrate and a gel imaging system (Tanon Science & Technology, Shanghai, China)."}, "p-p38/p38": {"test_system": "p-p38/p38", "assay": "Western blot of p-p38/p38 in hCMEC/D3 cells", "type": "cell-based, Homo sapiens", "experimental": "as §1"}, "FOXO1": {"test_system": "FOXO1", "assay": "Western blot of FOXO1 (p-FOXO1/FOXO1, total, cytoplasmic, nuclear) in hCMEC/D3 cells", "type": "cell-based, Homo sapiens", "conditions": "for FOXO1/Lamin B Relative Expression, Mean / FOXO1/Lamin B Relative Expression: Nucleus Protein", "experimental": "as §1\nHere, hCMEC/D3 cells were plated in the plates or culture dishes at 6 × 10^4 cells/cm^2 and transfected with 10 nM of negative control or human FOXO1, ETS1, and CDH5 siRNA (Tsingke Biotechnology, Beijing, China) for 12 hr using Lipofectamine 3000 (Invitrogen, Carlsbad, CA, USA) reagent according to the manufacturer’s instructions. Cells were then incubated with a medium containing GDNF for 72 hr.\nThe plasmids encoding FOXO1 (EX-Z7404-M02) were constructed by GeneCopoeia (Rockville, MD, USA). The hCMEC/D3 cells were plated in plates or dishes at 6 × 10^4 cells/cm^2. They were subsequently transfected with 1 µg of negative control or plasmids encoding FOXO1 6 hr using Lipofectamine 3000 reagent according to the manufacturer’s instructions. Transfected cells were then incubated with the medium containing GDNF for 72 hr."}, "claudin-5": {"test_system": "claudin-5", "assay": "Western blot of claudin-5 in primary rat brain microvascular endothelial cells", "type": "cell-based", "conditions": "primary rat BMECs, 200 pg/ml GDNF or US-CM", "experimental": "(§2) Then, hCMEC/D3, U251, and SH-SY5Y cells were cultured in DMEM/F12 containing 10% FBS, 62.5 µg/ml penicillin and 100 µg/ml streptomycin. Cell viability was assessed using a CCK-8 kit (Beyotime Biotechnology, Shanghai, China), and the results were expressed as the fold of control.\nas §1"}, "VE-cadherin [2]": {"test_system": "VE-cadherin", "assay": "Western blot of VE-cadherin in primary rat brain microvascular endothelial cells", "type": "cell-based", "conditions": "primary rat BMECs, 200 pg/ml GDNF or US-CM", "experimental": "as §2, §1"}, "[3]": {"conditions": "Cytoplasm protein, Figure 4F, group mean, Con = 1.000"}, "[4]": {"conditions": "Cytoplasm protein, Figure 4F, individual replicates, relative to Con"}, "[5]": {"conditions": "Figure 4B, Cytoplasm Protein, group mean, Con = 1.000"}, "[6]": {"conditions": "Figure 4B, Cytoplasm Protein, individual replicates, relative to Con"}, "[7]": {"conditions": "relative to Con, single replicate (Figure 2J)"}}, "note": "“And” between values parts separate entries of the source, which are not always exact repeats. Identical values can stand only once."}
{"molecule": "B1", "values": [{"measurement": "VE-cadherin expression", "setting": "VE-cadherin [1]; hCMEC/D3 cells incubated with conditioned medium or neurotrophic factor vs normal medium", "value": "induced the expression of claudin-5 and VE-cadherin in a concentration-dependent manner"}, {"measurement": "VE-cadherin/β-actin Relative Expression, Mean", "setting": "VE-cadherin [1]; Figure 3A", "value": 1.424}, {"measurement": "VE-cadherin/Tubulin Relative Expression Mean", "setting": "VE-cadherin [1]; Figure 3B", "value": 1.899}, {"measurement": "VE-cadherin/β-actin Relative Expression, Mean", "setting": "VE-cadherin [1]; Figure 3C", "value": 1.775}, {"measurement": "VE-cadherin/Tubulin Relative Expression Mean", "setting": "VE-cadherin [1]; Figure 3D", "value": 1.478}, {"measurement": "VE-cadherin/β-actin Relative Expression", "setting": "VE-cadherin [1]; Figure 3A", "value": "1.437 and 1.554 and 1.424 and 1.283"}, {"measurement": "VE-cadherin/Tubulin Relative Expression", "setting": "VE-cadherin [1]; Figure 3B", "value": "1.415 and 1.823 and 2.246 and 2.110"}, {"measurement": "VE-cadherin/β-actin Relative Expression", "setting": "VE-cadherin [1]; Figure 3C", "value": "1.887 and 1.656 and 1.568 and 1.989"}, {"measurement": "VE-cadherin/Tubulin Relative Expression", "setting": "VE-cadherin [1]; Figure 3D", "value": "1.343 and 1.350 and 1.787 and 1.430"}, {"measurement": "phosphorylation of JNK", "setting": "p-JNK/JNK; hCMEC/D3 cells, 200 pg/ml GDNF", "value": "did not stimulate"}, {"measurement": "p-JNK/JNK Relative Expression Mean", "setting": "p-JNK/JNK; relative to Con (mean 1.000), mean of 4, Figure 3C", "value": 1.172}, {"measurement": "p-JNK/JNK Relative Expression", "setting": "p-JNK/JNK; relative to Con (mean 1.000), single replicates, Figure 3C", "value": "1.036 and 1.122 and 1.219 and 1.311"}, {"measurement": "phosphorylation of p38", "setting": "p-p38/p38; hCMEC/D3 cells, 200 pg/ml GDNF", "value": "did not stimulate"}, {"measurement": "p-p38/p38 Relative Expression Mean", "setting": "p-p38/p38; relative to Con (mean 1.000), mean of 4, Figure 3D", "value": 0.924}, {"measurement": "p-p38/p38 Relative Expression", "setting": "p-p38/p38; relative to Con (mean 1.000), single replicates, Figure 3D", "value": "0.949 and 0.886 and 0.913 and 0.946"}, {"measurement": "FOXO1/GAPDH Relative Expression, Mean", "setting": "FOXO1; [3]", "value": 1.482}, {"measurement": "p-FOXO1/GAPDH Relative Expression, Mean", "setting": "FOXO1; [3]", "value": 1.560}, {"measurement": "FOXO1/GAPDH Relative Expression", "setting": "FOXO1; [4]", "value": "1.349 and 1.335 and 1.673 and 1.570"}, {"measurement": "p-FOXO1/GAPDH Relative Expression", "setting": "FOXO1; [4]", "value": "1.317 and 1.387 and 1.877 and 1.660"}, {"measurement": "p-FOXO1/FOXO1 Relative Expression, Mean", "setting": "FOXO1; Figure 4A, group mean, Con = 1.000", "value": 2.044}, {"measurement": "p-FOXO1/FOXO1 Relative Expression", "setting": "FOXO1; Figure 4A, individual replicates, relative to Con", "value": "2.153 and 1.987 and 1.525 and 2.510"}, {"measurement": "FOXO1/β-actin Relative Expression, Mean", "setting": "FOXO1; Figure 4A, total FOXO1, group mean, Con = 1.000", "value": 0.802}, {"measurement": "FOXO1/β-actin Relative Expression", "setting": "FOXO1; Figure 4A, total FOXO1, individual replicates, relative to Con", "value": "0.773 and 0.798 and 1.007 and 0.631"}, {"measurement": "FOXO1/GAPDH Relative Expression, Mean", "setting": "FOXO1; [5]", "value": 1.680}, {"measurement": "p-FOXO1/GAPDH Relative Expression, Mean", "setting": "FOXO1; [5]", "value": 1.601}, {"measurement": "FOXO1/GAPDH Relative Expression", "setting": "FOXO1; [6]", "value": "1.609 and 1.840 and 1.778 and 1.494"}, {"measurement": "p-FOXO1/GAPDH Relative Expression", "setting": "FOXO1; [6]", "value": "1.850 and 1.523 and 1.386 and 1.647"}, {"measurement": "FOXO1/Lamin B Relative Expression, Mean", "setting": "FOXO1; Figure 4B, group mean, Con = 1.000", "value": 0.556}, {"measurement": "FOXO1/Lamin B Relative Expression", "setting": "FOXO1; Figure 4B, individual replicates, relative to Con", "value": "0.674 and 0.519 and 0.531 and 0.499"}, {"measurement": "FOXO1/Lamin B Relative Expression, Mean", "setting": "FOXO1; Figure 4F, group mean, Con = 1.000", "value": 0.751}, {"measurement": "FOXO1/Lamin B Relative Expression", "setting": "FOXO1; Figure 4F, individual replicates, relative to Con", "value": "0.817 and 0.783 and 0.758 and 0.647"}, {"measurement": "p-FOXO1/FOXO1 Relative Expression, Mean", "setting": "FOXO1; Whole cell lysate, Figure 4F, group mean, Con = 1.000", "value": 1.362}, {"measurement": "p-FOXO1/FOXO1 Relative Expression", "setting": "FOXO1; Whole cell lysate, Figure 4F, individual replicates, relative to Con", "value": "1.502 and 1.205 and 1.426 and 1.314"}, {"measurement": "FOXO1 phosphorylation (p-FOXO1)", "setting": "FOXO1; hCMEC/D3 cells, GDNF or US-CM", "value": "significantly enhanced"}, {"measurement": "levels of nuclear FOXO1", "setting": "FOXO1; hCMEC/D3 cells, GDNF or US-CM", "value": "decreased"}, {"measurement": "levels of phosphorylated and unphosphorylated FOXO1 in the cytoplasm", "setting": "FOXO1; hCMEC/D3 cells, GDNF or US-CM", "value": "increased"}, {"measurement": "Claudin-5/β-actin Relative Expression, Mean", "setting": "claudin-5; Con = 1.000 (Figure 2J)", "value": 1.469}, {"measurement": "Claudin-5/β-actin Relative Expression", "setting": "claudin-5; [7]", "value": "1.317 and 1.479 and 1.586 and 1.495"}, {"measurement": "VE-cadherin/β-actin Relative Expression, Mean", "setting": "VE-cadherin [2]; Con = 1.000 (Figure 2J)", "value": 1.773}, {"measurement": "VE-cadherin/β-actin Relative Expression", "setting": "VE-cadherin [2]; [7]", "value": "2.095 and 1.692 and 1.731 and 1.576"}]}
